Measurements as given in publication PMC4412080.

Biological target: mouse anti-human CD4 IgG (BD Biosciences) (mouse)
Assay: ELISA; wells coated overnight at 4°C in PBS with mouse anti-human CD4 IgG (4 μg/mL) or with BSA; blocked with 3% BSA; phage (ID1-mZ 3 × 10^8 to 1 × 10^10 PFU/mL) in 0.1% Tween, 0.1% BSA in PBS for 1 h at r.t.; detected with HRP-conjugated anti-M13 antibody and TMB; mid-point of binding estimated; multivalent display; how the phage was prepared is not told

ID1-mZ phage (M13KE-derived phage that displays the minimized Z-domain of protein A and a TEV recognition sequence inside pIII, in linker L1)
EC50: 0.6 pM
